± gives the uncertainty stated by the source.

The data set in a line: amyloid nucleation score (Sup35N fusion, yeast selection) (log enrichment); library NNK3; higher = more nucleation; inactive = no reads after selection. A digest of the protocol:
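Peptides of 20 random codons fused to Sup35N were expressed in psi-negative yeast, induced 24 hours with 100 μM copper sulfate, then grown 7 days at 30°C on medium lacking adenine and uracil. Input and output plasmid inserts were Illumina-sequenced. Nucleation score is the DiMSum log enrichment of output over input reads, centred on the mode score of non-aggregating sequences, excluding sequences with under 100 input reads. Random libraries had three technical output replicates.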
As to GAGWTQAIAFIQS, the amyloid nucleation score entry is “inactive”. Turning to SLTEQNL, the amyloid nucleation score entry was “inactive”. Take PFGWSVLGTGASGAEIQLVE: the amyloid nucleation score entry was “inactive”. Regarding NMFVILRFVMHKIKMFNRF, the amyloid nucleation score was 1.51 ± 0.079. To WYTVRSKYANHVNDRHSRRW belongs -0.507 ± 0.98; to LGAAASSGRPMLTKYHLFWA, “inactive”. The value for LVSVGSIVTSLEFNTGCLWA was “inactive”; that for KDPEVQVRK was “inactive”. To WVGLVPYPMVAQEVFNHQD belongs “inactive”. SFYRMRVIHSLDYAKVKSTL showed an amyloid nucleation score of 0.772 ± 0.2.

With YYRSCWLSLCWCYHYCYGVD, the amyloid nucleation score is 0.346 ± 0.61. The value for PLKGDTVSYCGV was “inactive”; that for VKISYDKSRHVCLCGFSSM was 2.37 ± 0.077; that for IFNQLDLFCDRTLDGLRDAK was “inactive”. Turning to VWLRGDVLGMTLHGCSIVTR, the amyloid nucleation score entry was “inactive”.

For FVYLSSKYIMSQMFKGKQMY, the amyloid nucleation score entry was “inactive”.

As for HKVQESAY, the amyloid nucleation score result was “inactive”. On to SGAFYAHHHLSRLLTDEDIS, for which the amyloid nucleation score entry is “inactive”. In the case of ELVCVA, the amyloid nucleation score result is “inactive”.

The substance CKCVNLQFAVTIHCGGFVPF returned an amyloid nucleation score of 2.52 ± 0.072.

On to SYVDLYVGWLNSWMYVMRSA, for which the amyloid nucleation score entry was “inactive”. For WQTMPGVRDGCAECEIYWG, the amyloid nucleation score result is “inactive”. CKGKSFFARSYS: the amyloid nucleation score result is “inactive”. IFYVGNTLIFFIYMNWNRTY came in with an amyloid nucleation score of 0.679 ± 0.24.

For SVHWEVRFYMDRYVLAYAVT, the amyloid nucleation score result was “inactive”. For the substance IFLCI, the amyloid nucleation score entry was “inactive”. To RGNKTI belongs “inactive”; to IRLLATF, “inactive”.

As to VLRVLLGFDKFTATISTPDG, the amyloid nucleation score stood at 0.323 ± 0.28.

On to TIEQCGLS, for which the amyloid nucleation score entry was “inactive”. For the substance SIWWYNLVVI, the amyloid nucleation score entry is “inactive”. With LLTNLCIQYISSTLYYDRLF, the amyloid nucleation score entry is “inactive”. The value for SCCGRKMRPGRFEIIDKFCI was 0.523 ± 0.24; that for RLNGRDHL was “inactive”. In the case of NLVCQLLGRQRDPINPVVCW, the amyloid nucleation score result was “inactive”. Consider ENLLNMFWMFPLWYLGFNLG, for which the amyloid nucleation score entry is “inactive”. In turn, DLPKVHGKFFYSLPMVVNTN displayed an amyloid nucleation score of -0.162 ± 0.98.

Consider SIGPVCIRTQSRPQITLRMM, for which the amyloid nucleation score entry is “inactive”. The value for CSVTIGLIDTSPAIVSIPSD was “inactive”.

On to MNGDSAMWFSISS, for which the amyloid nucleation score result is “inactive”. On to CKFSDW, for which the amyloid nucleation score entry was “inactive”.

Consider CTVNCMTNNATVLVVRGPLR, for which the amyloid nucleation score came to 2.26 ± 0.067.

As for YRLQSLNPPISPVNHTNCSS, the amyloid nucleation score result is “inactive”. As for FLSDYGSC, the amyloid nucleation score result was “inactive”. With AFRSTSQYVY, the amyloid nucleation score entry was “inactive”.

Regarding SSMGVVSVRAN, the amyloid nucleation score entry was “inactive”. The value for LGMIHFVFMYFETYCYTYTI was “inactive”. For MLVVWLFMWFIHINKRWDGA, the amyloid nucleation score result was “inactive”. To YSLVYAYMESTMYYCLGLRM belongs “inactive”; to MCMSAFEGSSIICDCMVVLL, 1.85 ± 0.088. Regarding YSDLKSFLLNVIGRNKSIGM, the amyloid nucleation score result is “inactive”.

For FLMHSKVTSCGVWSLYFADV, the amyloid nucleation score is 1.44 ± 0.15. The substance IYSWTGLSTTLKFLGMSLLL showed an amyloid nucleation score of -0.218 ± 0.71. For HIVIISYFRLLWSCIAPHGA, the amyloid nucleation score result was “inactive”.

On to HMFMRNLEMRVGHSFHRLRD, for which the amyloid nucleation score result was “inactive”. In the case of RKTSV, the amyloid nucleation score is -0.071 ± 0.28. To CFMSNIDIFLDRCMRKGCNH belongs 2.08 ± 0.072.

Regarding LSRCMWDSDMYRGERYGRRR, the amyloid nucleation score entry is “inactive”.

Turning to ASFSMG, the amyloid nucleation score entry was “inactive”. The value for VSLTGWSR was “inactive”. For WYALYAKYASTPGFCACLRG, the amyloid nucleation score entry was “inactive”. GKFLVFAKVNVMVGCVLLFM: the amyloid nucleation score entry is “inactive”. For the substance YLSPVKRRYD, the amyloid nucleation score entry is “inactive”. In turn, SKWAYIAFGVFVLLFALFNK registered an amyloid nucleation score of -0.161 ± 0.27.

Turning to SLRFCWILGENQSGTCSIKR, the amyloid nucleation score is 1.16 ± 0.15. The value for LGGKDSASILIVPWTILSGL was “inactive”. In the case of IDKFVRFCIFSWCLMNGDVG, the amyloid nucleation score result was “inactive”. Turning to VPNDKVGKLRIMGREWVRSH, the amyloid nucleation score result is “inactive”. To LFVIKGENNSEEYTNVNFWR belongs 0.389 ± 0.23. The value for CTLVLLKQ was “inactive”. To ELNTFKSTQIHWGIGDSSQE belongs 0.34 ± 0.31; to HCHCIVEYQFFSVHLIRTYE, “inactive”; to LKKVLPYGVRWTDITGPWVS, “inactive”. Regarding TYQVILSFYDLWFGRSAYCQ, the amyloid nucleation score result is “inactive”. To LQCLVSAKCNFCMYR belongs 0.869 ± 0.19; to NRGSYVFMNRSEPVCSWISK, 1.09 ± 0.1; to TVEVNCCYLEGNVV, 1.03 ± 0.089. The value for VGLSYVMINLGLPYLGRSAT was 1.83 ± 0.082; that for TTRRVGCLMGFLVDFRIKSC was “inactive”.

As for LSRRNFIRNNVVQ, the amyloid nucleation score entry is “inactive”. SFYIVVRWMYIRFVDQYLIY: the amyloid nucleation score entry is “inactive”.

WSIRYVLICIGVSKIVCRPL: the amyloid nucleation score entry was “inactive”. In the case of TRGLWYQHVDHSTFRLKEST, the amyloid nucleation score entry is “inactive”. To RVTDLRYIKMFVCIILCTGL belongs “inactive”; to GSDFTESCVDFFLVVNVDAV, “inactive”. The value for TRNCGRSGYRL was 1.13 ± 0.089. The value for VYMLYQFSCPGVDNWVCTES was “inactive”; that for DPTIVIGDQPIRLRPSVCQM was “inactive”. Turning to RLSWSQPVLNVSTCEGVN, the amyloid nucleation score result is “inactive”. The value for VTFKDMDTHGWVHLSIHVAE was “inactive”. To IIRVGMLWVGKLLRRSWGEQ belongs “inactive”; to SCDNYVVLTHEFVLSHSKSL, 1.01 ± 0.14. The value for WSVITT was “inactive”. Regarding GFMHTVRCIRIEPPQCRAVV, the amyloid nucleation score result is “inactive”. The value for LMGKTHFLSVVWVVQVG was “inactive”; that for SIGNAVYMIVGITGVRRRIY was “inactive”; that for ISVYHVLTHKL was 1.49 ± 0.12.

Take TKGTKDRPPYTVVRLQYGNS: the amyloid nucleation score result is “inactive”.

For AYWSFFPWGLYARLPGTPVV, the amyloid nucleation score entry was “inactive”. In the case of MSSQCWRQIGWDTCARS, the amyloid nucleation score entry was “inactive”. The value for SNSVHISLYIGSPSFA was 2.56 ± 0.086; that for LVPIVVGKRFPIYVGVGPKG was “inactive”; that for CVLNW was “inactive”. The value for YSAAYEIIIFICQCCNLKVG was “inactive”; that for RFWCLVVCTRLVHMENGRCS was “inactive”; that for VCYNLCRKIPDSLSKIPDRR was “inactive”.

With GLLNSD, the amyloid nucleation score entry was “inactive”.

Turning to VTGMFDSSLRRKMKVPVWAI, the amyloid nucleation score entry is “inactive”. VACRFHMCLWLGRVLDYAKN gave an amyloid nucleation score of 1.1 ± 0.14. On to YLDKCIVVCFRVRNSNSFWL, for which the amyloid nucleation score was found to be 2.42 ± 0.065. Regarding RSVVVIYKRCGLYLKS, the amyloid nucleation score result is “inactive”. Take ILMELPRRRMWSLKALSLMY: the amyloid nucleation score entry was “inactive”. The value for IVVEQLHDWDIPMKGTTFRS was “inactive”; that for KDLRYTVFEVWDKYWPLTGL was “inactive”. The value for YRLAN was “inactive”; that for MEVDQTYVRIWC was 1.31 ± 0.14; that for NFTSRSAVLVR was 2.21 ± 0.07.

Turning to ALIRITRYYLSFTGY, the amyloid nucleation score result was “inactive”. Regarding CQFFQFDLNYEFKLVSRAHK, the amyloid nucleation score entry was “inactive”. Regarding SSMSSTSALLYMHDNFWCAI, the amyloid nucleation score result was “inactive”.

As for FVFRHYSRPDIFQDGKKSAN, the amyloid nucleation score was found to be 1.08 ± 0.15. To YRELSTLREEMHIRY belongs “inactive”; to VRVDDKSNCVTRRFKP, “inactive”; to MCDKV, “inactive”. For DNFVEDFLTMASGNIRC, the amyloid nucleation score result was “inactive”.

For DVFHSCLAQFILYTP, the amyloid nucleation score result was “inactive”. The value for SADNLDKFRLEMPVSLVRLN was “inactive”; that for YSLNCYYFSLGLN was “inactive”; that for CTFQYSIIYRCYYRYGVVR was “inactive”. The value for YYLCVVPLRLLGRCASWSFG was “inactive”; that for YLIGRGVMVFNFPWLLHHTN was 1.58 ± 0.1.

(Values after the supplement of paper PMC12042874.)
